“And” between values parts separate entries of the source, which are not always exact repeats. Equal entries are not always repeated.
B1: Δ2,3-452Flag soluble BACE (S174I, N223A) (protein)
chain: TQHGIRLPLRSGLGGAPLGLRLPRETDEEPEEPGRRGSFVEMVDNLRGKSGQGYYVEMTVGSPPQTLNILVDTGSSNFAVGAAPHPFLHRYYQRQLSSTYRDLRKGVYVPYTQGKWEGELGTDLVSIPHGPNVTVRANIAAITESDKFFINGINWEGILGLAYAEIARPDDSLEPFFDSLVKQTHVPNLFSLQLCGAGFPLAQSEVLASVGGSMIIGGIDHSLYTGSLWYTPIRREWYYEVIIVRVEINGQDLKMDCKEYNYDKSIVDSGTTNLRLPKKVFEAAVKSIKAASSTEKFPDGFWLGEQLVCWQAGTTPWNIFPVISLYLMGEVTNQSFRITILPQQYLRPVEDVATSQDDCYKFAISQSSTGTVMGAVIMEGFYVVFDRARKRIGFAVSACHVHDEFRTAAVEGPFVTLDMEDCGYNIPQTD
B2: 452Flag soluble BACE (membrane truncated BACE with C-terminal Flag epitope tag, fully glycosylated) (protein)
chain: TQHGIRLPLRSGLGGAPLGLRLPRETDEEPEEPGRRGSFVEMVDNLRGKSGQGYYVEMTVGSPPQTLNILVDTGSSNFAVGAAPHPFLHRYYQRQLSSTYRDLRKGVYVPYTQGKWEGELGTDLVSIPHGPNVTVRANIAAITESDKFFINGSNWEGILGLAYAEIARPDDSLEPFFDSLVKQTHVPNLFSLQLCGAGFPLNQSEVLASVGGSMIIGGIDHSLYTGSLWYTPIRREWYYEVIIVRVEINGQDLKMDCKEYNYDKSIVDSGTTNLRLPKKVFEAAVKSIKAASSTEKFPDGFWLGEQLVCWQAGTTPWNIFPVISLYLMGEVTNQSFRITILPQQYLRPVEDVATSQDDCYKFAISQSSTGTVMGAVIMEGFYVVFDRARKRIGFAVSACHVHDEFRTAAVEGPFVTLDMEDCGYNIPQTD
B3: Δ3-452Flag soluble BACE (N223A) (protein)
chain: TQHGIRLPLRSGLGGAPLGLRLPRETDEEPEEPGRRGSFVEMVDNLRGKSGQGYYVEMTVGSPPQTLNILVDTGSSNFAVGAAPHPFLHRYYQRQLSSTYRDLRKGVYVPYTQGKWEGELGTDLVSIPHGPNVTVRANIAAITESDKFFINGSNWEGILGLAYAEIARPDDSLEPFFDSLVKQTHVPNLFSLQLCGAGFPLAQSEVLASVGGSMIIGGIDHSLYTGSLWYTPIRREWYYEVIIVRVEINGQDLKMDCKEYNYDKSIVDSGTTNLRLPKKVFEAAVKSIKAASSTEKFPDGFWLGEQLVCWQAGTTPWNIFPVISLYLMGEVTNQSFRITILPQQYLRPVEDVATSQDDCYKFAISQSSTGTVMGAVIMEGFYVVFDRARKRIGFAVSACHVHDEFRTAAVEGPFVTLDMEDCGYNIPQTD
B4: 452H,NINL soluble BACE (R42L43P44R45 changed to NINL, histidine tag), baculovirus/Sf9 (protein)
chain: NINLETDEEPEEPGRRGSFVEMVDNLRGKSGQGYYVEMTVGSPPQTLNILVDTGSSNFAVGAAPHPFLHRYYQRQLSSTYRDLRKGVYVPYTQGKWEGELGTDLVSIPHGPNVTVRANIAAITESDKFFINGSNWEGILGLAYAEIARPDDSLEPFFDSLVKQTHVPNLFSLQLCGAGFPLNQSEVLASVGGSMIIGGIDHSLYTGSLWYTPIRREWYYEVIIVRVEINGQDLKMDCKEYNYDKSIVDSGTTNLRLPKKVFEAAVKSIKAASSTEKFPDGFWLGEQLVCWQAGTTPWNIFPVISLYLMGEVTNQSFRITILPQQYLRPVEDVATSQDDCYKFAISQSSTGTVMGAVIMEGFYVVFDRARKRIGFAVSACHVHDEFRTAAVEGPFVTLDMEDCGYNIPQTDE
B5: Δ2,3-452H,NINL soluble BACE (S174I, N223A, R42L43P44R45 changed to NINL, histidine tag), baculovirus/Sf9 (protein)
chain: NINLETDEEPEEPGRRGSFVEMVDNLRGKSGQGYYVEMTVGSPPQTLNILVDTGSSNFAVGAAPHPFLHRYYQRQLSSTYRDLRKGVYVPYTQGKWEGELGTDLVSIPHGPNVTVRANIAAITESDKFFINGINWEGILGLAYAEIARPDDSLEPFFDSLVKQTHVPNLFSLQLCGAGFPLAQSEVLASVGGSMIIGGIDHSLYTGSLWYTPIRREWYYEVIIVRVEINGQDLKMDCKEYNYDKSIVDSGTTNLRLPKKVFEAAVKSIKAASSTEKFPDGFWLGEQLVCWQAGTTPWNIFPVISLYLMGEVTNQSFRITILPQQYLRPVEDVATSQDDCYKFAISQSSTGTVMGAVIMEGFYVVFDRARKRIGFAVSACHVHDEFRTAAVEGPFVTLDMEDCGYNIPQTDE
B6: Δ2,3-452H soluble BACE (S174I, N223A, histidine tag), baculovirus/Sf9 (protein)
chain: TQHGIRLPLRSGLGGAPLGLRLPRETDEEPEEPGRRGSFVEMVDNLRGKSGQGYYVEMTVGSPPQTLNILVDTGSSNFAVGAAPHPFLHRYYQRQLSSTYRDLRKGVYVPYTQGKWEGELGTDLVSIPHGPNVTVRANIAAITESDKFFINGINWEGILGLAYAEIARPDDSLEPFFDSLVKQTHVPNLFSLQLCGAGFPLAQSEVLASVGGSMIIGGIDHSLYTGSLWYTPIRREWYYEVIIVRVEINGQDLKMDCKEYNYDKSIVDSGTTNLRLPKKVFEAAVKSIKAASSTEKFPDGFWLGEQLVCWQAGTTPWNIFPVISLYLMGEVTNQSFRITILPQQYLRPVEDVATSQDDCYKFAISQSSTGTVMGAVIMEGFYVVFDRARKRIGFAVSACHVHDEFRTAAVEGPFVTLDMEDCGYNIPQTDE

Target: MBP-C125Swe (maltose binding protein fused to the C-terminal 125 amino acids of the Swedish variant of APP), P05067
Sequence (P05067 whole entry, looked up, change not shown, the tested form may be a part): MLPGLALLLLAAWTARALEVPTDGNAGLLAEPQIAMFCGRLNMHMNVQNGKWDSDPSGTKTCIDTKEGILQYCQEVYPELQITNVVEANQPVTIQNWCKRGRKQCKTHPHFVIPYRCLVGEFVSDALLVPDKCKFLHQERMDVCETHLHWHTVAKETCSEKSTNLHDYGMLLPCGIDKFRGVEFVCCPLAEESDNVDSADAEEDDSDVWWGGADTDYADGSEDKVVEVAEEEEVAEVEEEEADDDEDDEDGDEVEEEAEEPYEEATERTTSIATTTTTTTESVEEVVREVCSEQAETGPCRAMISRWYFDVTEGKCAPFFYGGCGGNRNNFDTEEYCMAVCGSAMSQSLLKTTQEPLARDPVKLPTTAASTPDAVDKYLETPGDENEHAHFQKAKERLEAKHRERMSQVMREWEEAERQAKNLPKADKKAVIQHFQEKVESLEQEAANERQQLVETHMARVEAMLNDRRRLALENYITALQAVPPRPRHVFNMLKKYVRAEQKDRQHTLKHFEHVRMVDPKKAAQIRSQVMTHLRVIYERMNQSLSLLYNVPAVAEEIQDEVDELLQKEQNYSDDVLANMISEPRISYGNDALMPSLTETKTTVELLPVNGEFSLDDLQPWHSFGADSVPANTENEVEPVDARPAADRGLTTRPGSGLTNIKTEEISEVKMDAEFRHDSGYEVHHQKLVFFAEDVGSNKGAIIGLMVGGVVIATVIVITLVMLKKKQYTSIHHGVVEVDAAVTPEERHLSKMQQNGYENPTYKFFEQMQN

Protein	Activity (pM/h/ng enz)	Cleavage Product (pM)	Substrate Conversion (%)	specific activity	Enzyme activity
B1	15800 pM/h/ng enz and 15700 pM/h/ng enz	109 pM and 108 pM	5.19% and 5.16%	all three proteins (452 Flag, Δ3-452Flag and Δ2,3-452Flag) had similar specific activities	
B2	14300 pM/h/ng enz and 15200 pM/h/ng enz	85 pM and 90 pM	4.05% and 4.30%	all three proteins (452 Flag, Δ3-452Flag and Δ2,3-452Flag) had similar specific activities	
B3	19100 pM/h/ng enz and 20200 pM/h/ng enz	126 pM and 119 pM	5.68% and 6.01%	all three proteins (452 Flag, Δ3-452Flag and Δ2,3-452Flag) had similar specific activities	
B4					good activity was obtained for all samples tested
B5					good activity was obtained for all samples tested
B6					good activity was obtained for all samples tested
